According to patent publication US20230056992A1 (AGGAMIN, published 2023):

Experiments:
[1] = target: T1, endogenous sEng in pre-eclamptic patient serum (human, UniProt P17813 26-586); experiment: 0.1 mL column of antibody-conjugated beads, pre-eclamptic patient serum
T1 construct: Native protein in patient serum; the isoform or cleavage product is not defined; also called circulating sEng
T1 sequence (looked up): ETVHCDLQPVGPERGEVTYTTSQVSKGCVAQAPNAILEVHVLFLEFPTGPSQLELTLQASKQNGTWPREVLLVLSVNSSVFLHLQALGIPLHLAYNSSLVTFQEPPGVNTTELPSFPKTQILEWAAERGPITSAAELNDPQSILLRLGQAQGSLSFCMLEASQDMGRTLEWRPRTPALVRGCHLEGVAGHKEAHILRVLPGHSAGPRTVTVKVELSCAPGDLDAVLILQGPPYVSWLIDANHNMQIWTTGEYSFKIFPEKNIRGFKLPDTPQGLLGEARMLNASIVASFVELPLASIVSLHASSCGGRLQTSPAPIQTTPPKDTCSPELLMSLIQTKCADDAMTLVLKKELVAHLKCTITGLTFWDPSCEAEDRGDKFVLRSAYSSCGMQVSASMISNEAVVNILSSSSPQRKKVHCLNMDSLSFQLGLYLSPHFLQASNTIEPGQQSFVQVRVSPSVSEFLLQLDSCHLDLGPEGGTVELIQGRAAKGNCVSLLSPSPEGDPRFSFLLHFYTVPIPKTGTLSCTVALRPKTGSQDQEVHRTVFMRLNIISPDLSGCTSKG
Method: (§1) Circulating sEng and sFlt-1 proteins are elevated in pre-eclampsia patients and are postulated to be major causal factors of disease onset and progression. To test whether a cENG10/AG10B dual device is capable of removing these endogenous sEng and sFlt-1 proteins from patient serum, micro-scale 0.1 mL columns conjugated with cENG10, AG10B, or both cENG10 and AG10B MAbs were prepared. cENG10 column specifically removed>90% of endogenous sEng in pre-eclamptic serum but not endogenous sFlt-1, and the AG10B column specifically removed>90% of endogenous sFlt-1 in pre-eclamptic serum but not endogenous sEng. The cENG10/AG10B dual device column, in which a mixture of the two antibodies at 1 mg each per mL beads were conjugated simultaneously, removed>90% of both sEng and sFlt-1 proteins.

[2] = target: T2, purified recombinant human sEng (human Endoglin ectodomain residues 26 to 586 with C-terminal 6x His tag, … (human, UniProt P17813 26-586)); experiment: 1 mL column, 0.2 mg MAb per mL Sepharose beads, flow rates 0.25-2.00 mL/min; input vs flow-through
T2 construct: range 26-586; also called spiked sEng; recombinant human sEng (amino acid residues 26-586)
T2 sequence: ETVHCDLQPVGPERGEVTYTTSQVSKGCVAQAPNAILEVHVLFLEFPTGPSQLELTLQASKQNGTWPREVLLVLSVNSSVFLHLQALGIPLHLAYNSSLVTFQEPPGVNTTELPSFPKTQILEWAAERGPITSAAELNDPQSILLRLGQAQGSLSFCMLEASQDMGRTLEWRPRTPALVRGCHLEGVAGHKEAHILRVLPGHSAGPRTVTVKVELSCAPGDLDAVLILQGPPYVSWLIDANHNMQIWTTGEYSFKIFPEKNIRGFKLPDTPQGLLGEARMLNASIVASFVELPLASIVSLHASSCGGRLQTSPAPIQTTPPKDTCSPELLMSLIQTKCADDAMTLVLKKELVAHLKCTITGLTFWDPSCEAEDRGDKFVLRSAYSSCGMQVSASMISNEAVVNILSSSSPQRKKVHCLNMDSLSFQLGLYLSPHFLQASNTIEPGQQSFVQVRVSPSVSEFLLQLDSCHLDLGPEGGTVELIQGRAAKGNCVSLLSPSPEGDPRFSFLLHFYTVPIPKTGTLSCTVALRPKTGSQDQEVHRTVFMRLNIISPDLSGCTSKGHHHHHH
Method: A 1-ml cENG10 device column was evaluated for depletion of spiked sEng in horse serum. For each column, 0.2 mg cENG10 or AG10B MAb was covalently conjugated to 1 mL of CNBr-activated Sepharose 4FF beads for 0.2 mg per mL beads ratio. For each test, 10 mL of serum containing 60 ng/mL of sEng, median concentration in severe pre-eclampsia patients, was applied for one cycle over the column. The first 1 ml containing pre-equilibration buffer was not collected in the flow-through (FT) fraction and the last 1 mL of input remaining in column was chased with 1 CV of PBS buffer and pooled into the FT fraction. The % sEng depletion was calculated by dividing the difference in concentration between input and FT by input concentration: […]

[3] = target: T3, endogenous sFlt-1 in pre-eclamptic patient serum (human, UniProt P17948-2 27-687, limits assumed); experiment: 0.1 mL column of antibody-conjugated beads, pre-eclamptic patient serum
T3 construct: Native protein in patient serum; the isoform is not defined; also called circulating sFlt-1
T3 sequence (P17948 other isoform, or with tags, fused parts or gaps limits assumed): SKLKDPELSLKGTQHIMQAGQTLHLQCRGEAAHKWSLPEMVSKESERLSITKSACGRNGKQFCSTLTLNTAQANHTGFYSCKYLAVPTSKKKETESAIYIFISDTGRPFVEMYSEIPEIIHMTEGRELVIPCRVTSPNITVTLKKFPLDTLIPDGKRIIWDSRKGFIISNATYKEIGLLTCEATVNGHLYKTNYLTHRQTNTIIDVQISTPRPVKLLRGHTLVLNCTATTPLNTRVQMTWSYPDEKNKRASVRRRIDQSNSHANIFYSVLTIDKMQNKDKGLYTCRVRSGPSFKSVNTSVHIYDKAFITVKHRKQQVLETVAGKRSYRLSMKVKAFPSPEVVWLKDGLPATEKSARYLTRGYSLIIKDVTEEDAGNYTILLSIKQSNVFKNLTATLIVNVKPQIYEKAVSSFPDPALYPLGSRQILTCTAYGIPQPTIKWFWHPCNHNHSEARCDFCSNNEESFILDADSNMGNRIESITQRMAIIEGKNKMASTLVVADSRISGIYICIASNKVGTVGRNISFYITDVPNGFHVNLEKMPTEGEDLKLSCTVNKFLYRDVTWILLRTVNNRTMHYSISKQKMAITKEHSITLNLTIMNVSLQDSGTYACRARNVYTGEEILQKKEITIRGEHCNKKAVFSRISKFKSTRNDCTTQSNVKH
Method: as §1

B1: chimeric anti-sFlt-1 antibody AG10B (antibody, V domains shown)
VH: QVQLQQSGPELVKPGASVKMSCKASGYTFTDYVISWVKQRTGQGLEWIGEIYPGSGSIYYNEKFKGKATLTADTSSNTAYMQLSSLTFEDSAVIFCARGHYYGYFDYWGQGTTLTVSS
VL: DIVMTQSHKFMSTSVGDRVSITCKASQDVTITVAWYQQKPGQSPKLLIYSASYRYTGVPDRFTGSGSGTDFTFTISSVQAEDLAVYYCQQHYTTPWTFGGGTKLEIKR
notes: Chimeric mouse/human IgG1 kappa with N298Q; It served as the negative control for sEng depletion; also called AGB10; AB10B
binding result [1]: no binding
binding result [2]: no binding (tested: 60 ng/mL sEng in 10 mL horse serum)

B2: chimeric anti-sEng antibody cENG10 (antibody, human IgG1, kappa, N297Q, V domains shown)
VH: EVQLEQSGPEVVKPGTSVKISCKTSGYTITEHTLHWIKQNQGKSLEWIGGINFDNGGTTYRQKFKDKATLTVDKSSSTAFMELRSLTSDDSAVYFCARRAYYYGSAFDYWGQGTTLTVSS
VL: ENVLTQSPAIMSASLGEKVTMTCRASSSVNYVYWYQQKSDASPKLWIYYTSNLAPGVPARFSGSGSGNSYSLTISSMEGEDAATYYCQQFISFPYTFGGGTKLEIKR
notes: Chimeric mouse/human IgG1 kappa with N300Q; also called anti-human sEng MAb; cENG10 column
binding result [3]: no binding
